± gives the uncertainty stated by the source.
Assay: protein stability index of a GFP-peptide fusion (yeast GPS) (PSI 1-4); higher = more stable; sorted into four equal gates, so the index is relative within each strain
Outline: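 For each peptide, the protein stability index sums the read frequency in every gate after multiplying it by the gate number. Read frequencies came from plasmids that were PCR-amplified from each gate and Illumina-sequenced, with reads assigned to strains by barcodes. The gates were four equal bins of GFP/Cherry fluorescence ratio applied to mid-log yeast in leucine-free medium carrying a pooled library of tiled 17-residue yeast protein peptides fused downstream of GFP on a Cherry-expressing plasmid.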

| Sequence | protein stability index (doa10∆) | protein stability index (pdr5∆) | protein stability index (ubr1∆) | protein stability index (san1∆) |
| --- | --- | --- | --- | --- |
| VLRPFLLRRLKKDVEKE [SNF2] | 2.8 ± 0.13 | 3.16 ± 0.19 | 3.11 ± 0.12 |  |
| SQTPKVEKTEKPKKPKG [RPS30A] | 3.1 ± 0.07 | 3.12 ± 0.07 | 2.94 ± 0.047 | 2.93 ± 0.051 |
| ESIASSNTYKEERSNNL [MCD1] | 3.03 ± 0.13 | 3.37 ± 0.14 | 3.39 ± 0.075 | 3.25 ± 0.06 |
| QDSMSKGTGEESNDRIN [YGR119C/NUP57] | 3.33 ± 0.098 | 3.22 ± 0.15 | 3.38 ± 0.057 | 3.23 ± 0.09 |
| PVTIWLFEQIGIRIKGK [SME1] | 2.42 ± 0.057 | 2.28 ± 0.053 | 2.45 ± 0.039 | 2.35 ± 0.066 |
| DARSSRNFSLAIIDKNT [PRE4] | 3.02 ± 0.075 | 2.78 ± 0.083 | 2.89 ± 0.056 | 2.98 ± 0.05 |
| EALSEKPTREPTPSVKT [RPC53] | 3.11 ± 0.099 | 3.07 ± 0.085 | 3.25 ± 0.089 | 3.2 ± 0.063 |
| LSTLEPSTSITLAERQQ [RPN9] | 2.9 ± 0.055 | 2.91 ± 0.058 | 2.86 ± 0.036 | 2.58 ± 0.062 |
| EIFKKGYIKNNKKIYQW [POP6] | 3.46 ± 0.24 |  |  |  |
| KSHNAHVRCGTAFALGI [RPN2] | 1.72 ± 0.27 | 2.41 ± 0.1 | 1.8 ± 0.075 | 2.18 ± 0.14 |
| QKKVPDKLLDPTTVSYI [SCL1] | 2.9 ± 0.05 | 2.28 ± 0.047 | 2.67 ± 0.044 | 2.4 ± 0.056 |
| NTTLQDNVSFIEEAKSI [REC8] | 3.1 ± 0.084 | 3.22 ± 0.091 | 3.17 ± 0.066 | 3.23 ± 0.064 |
| PIQSKVFHAAFEGDSNM [BRR2] | 2.91 ± 0.055 | 3.02 ± 0.051 | 2.9 ± 0.032 | 2.92 ± 0.063 |
| VLVLRGTLEGHNGWVTS [ASC1] | 2.75 ± 0.15 | 2.1 ± 0.14 | 2.76 ± 0.18 | 2.1 ± 0.15 |
| EIIGGGSKSASKQTPQP [ISW2] | 2.95 ± 0.081 | 3.08 ± 0.092 | 2.96 ± 0.06 | 2.97 ± 0.068 |
| ESNNPSHDASRSLASFE [SIR4] | 2.97 ± 0.1 | 3.14 ± 0.12 | 3.02 ± 0.17 | 3.02 ± 0.072 |
| VEIVNYNVENQQYVAAG [FAS1] | 2.66 ± 0.17 | 2.67 ± 0.18 |  |  |
| YYLGQYYGCLENDHERG [CSN12] | 2.68 ± 0.098 | 2.85 ± 0.093 | 3.06 ± 0.052 | 2.84 ± 0.06 |
| DNRTKSTTIKNIDILNR [SMC4] | 1.85 ± 0.062 | 2.07 ± 0.062 | 1.67 ± 0.08 | 1.77 ± 0.15 |
| ENKVMLPRCSKEEFRLM [RRI2] | 1.8 ± 0.06 | 2.1 ± 0.076 | 1.7 ± 0.048 | 2.06 ± 0.088 |
| FMVRLDSEKHIDFAPTS [RPS9A] | 2.91 ± 0.071 | 2.87 ± 0.047 | 2.82 ± 0.047 | 2.72 ± 0.05 |
| VEFCGYSIPHPSENLLN [RPC19] | 2.7 ± 0.077 | 3.05 ± 0.062 | 2.95 ± 0.074 | 2.92 ± 0.05 |
| SQISKAEMEADSLASEL [SMC4] | 2.75 ± 0.08 | 3.31 ± 0.16 | 2.82 ± 0.16 | 3.27 ± 0.071 |
| KQIIVTRKAMLDPLEVH [PRP8] | 3.11 ± 0.094 | 3.13 ± 0.071 | 3.05 ± 0.055 | 3.16 ± 0.062 |
| ERRLQTQVYKLGLAKSV [RPS9A] | 1.29 ± 0.067 | 1.23 ± 0.056 | 1.23 ± 0.064 | 1.2 ± 0.18 |
| ALEEGLNEEAVIFLSSL [YJL039C/NUP192] | 3.28 ± 0.1 | 3.05 ± 0.062 | 2.99 ± 0.065 | 3 ± 0.07 |
| DAIYRELTKNPNSNVEL [SMC1] | 3.31 ± 0.3 | 2.91 ± 0.15 | 3.38 ± 0.13 | 3.33 ± 0.088 |

| Sequence | protein stability index (doa10∆) | protein stability index (pdr5∆) | protein stability index (ubr1∆) | protein stability index (san1∆) |
| --- | --- | --- | --- | --- |
| DDEGSFAQENSELAVAT [SRB6] | 3.08 ± 0.065 | 3.25 ± 0.075 | 3.3 ± 0.054 | 3.08 ± 0.054 |
| ASFQIVEEDHTLGNALR [RPC19] | 2.74 ± 0.21 | 2.22 ± 0.23 | 3.35 ± 0.26 |  |
| MTMNGIPVKLLNEAQGH [SMD3] | 3.2 ± 0.12 | 3.39 ± 0.16 | 3.1 ± 0.11 | 2.76 ± 0.091 |
| QSKEILKGLLQELKADS [SRP72] | 2.36 ± 0.17 | 2.13 ± 0.27 | 2.6 ± 0.11 | 2.75 ± 0.096 |
| SFIINFISNLPNVSDKY [NUT1] | 2.28 ± 0.08 | 1.91 ± 0.07 | 1.95 ± 0.057 | 2.06 ± 0.15 |
| TRFPPAVFYTPKELGGL [PRP8] | 3.19 ± 0.076 | 3.08 ± 0.07 | 3.04 ± 0.063 | 3.25 ± 0.068 |
| ANLVNKESDLLEETRTT [BRN1] | 3.06 ± 0.18 | 3.51 ± 0.17 | 3.26 ± 0.077 | 3.31 ± 0.098 |
| YLKNVLFAFNGVARNFH [SIN4] | 2.55 ± 0.082 | 2 ± 0.056 | 2.15 ± 0.063 | 1.79 ± 0.064 |
| NPNNVNVQTQYREAPVI [RET1] | 2.5 ± 0.085 | 2.73 ± 0.045 | 2.63 ± 0.057 | 2.48 ± 0.1 |
| SNRLLMDVDQFDFLDDG [YJR042W/NUP85] | 1.49 ± 0.097 | 1.37 ± 0.15 | 1.23 ± 0.099 | 1.69 ± 0.27 |
| SRKRNEEEDAKNPLFSY [RPL31A] | 2.48 ± 0.078 | 2.91 ± 0.059 | 2.12 ± 0.043 | 2.58 ± 0.074 |
| KNLKHIDVTFTKVNNQL [RPL9A] | 2.79 ± 0.057 | 2.58 ± 0.053 | 2.62 ± 0.045 | 2.52 ± 0.07 |
| RKILNFKKDLVIVLSNI [SWI1] | 2.52 ± 0.1 | 2.25 ± 0.07 | 2.71 ± 0.087 | 2.11 ± 0.14 |
| RAVFLFRCKETHSYNFM [RPC82] | 2.19 ± 0.058 | 2.02 ± 0.084 | 2.47 ± 0.063 | 1.98 ± 0.091 |
| EKSQEVEYVDPTVNRVP [RPN7] |  |  | 3.74 ± 0.27 |  |
| VLKESIVNICDIQEEQV [PUP1] | 3.15 ± 0.22 | 3.04 ± 0.22 |  | 3.33 ± 0.14 |
| RKHPGGRGMAGGQHHHR [RPL28] | 2.94 ± 0.14 | 2.6 ± 0.26 | 3.18 ± 0.16 | 3.03 ± 0.1 |
| IGTHHAGLTRSDRSLSE [BRR2] | 2.2 ± 0.11 | 2.05 ± 0.2 | 2.62 ± 0.07 | 1.47 ± 0.14 |
| DIYKSHLDNSKSVFSSA [RPN1] | 2.69 ± 0.056 | 2.77 ± 0.041 | 2.66 ± 0.063 | 2.67 ± 0.051 |
| TSQKMTSTVNRLNTVTR [MCD1] | 3.16 ± 0.094 | 2.94 ± 0.18 | 3.09 ± 0.098 | 3.57 ± 0.18 |
| NNYNSRIQLMNDFTTKL [MED1] | 2.89 ± 0.075 | 2.85 ± 0.075 | 3.08 ± 0.059 | 2.98 ± 0.058 |
| SFSFSIPSKNTPDASKP [YLR335W/NUP2] | 2.42 ± 0.04 | 2.45 ± 0.042 | 2.5 ± 0.037 | 2.28 ± 0.045 |
| NTSLPPSILEDSLENNE [FAS1] | 2.89 ± 0.11 | 2.98 ± 0.11 | 2.81 ± 0.079 | 3.11 ± 0.095 |
| MLMPKEDRNKIHQYLFQ [RPS10A] | 2.27 ± 0.057 | 2.58 ± 0.057 | 2.71 ± 0.047 | 2.49 ± 0.079 |
| TSNKEGFNSIWKIPQND [SSN2] | 3.29 ± 0.26 | 3.72 ± 0.3 |  | 3.45 ± 0.15 |
| LNDEGEPIKVNVRVGQA [RPN1] | 3.13 ± 0.09 | 3.03 ± 0.062 | 3.2 ± 0.063 | 2.85 ± 0.065 |
